{"source": "patent US20160303245A1", "about": "“FATTY ACID DERIVATIVES OF DIMERIC INHIBITORS OF PSD-95” (UNIVERSITY OF COPENHAGEN, priority 2013, published 2016)", "key": {"[1]": {"target": "Human Serum Albumin (human), P02768", "test": "Transil XL HSA binding kit (immobilized HSA), unbound compound by RP-HPLC"}, "[2]": {"target": "Human Serum Albumin (human), P02768", "test": "calculated from KD(HSA) at 150 µM HSA (equation 2)"}}}
{"binder": "IETDV (modifications not checked)", "note": "[FA-linked dimeric ligand 15]", "values": [{"measurement": "Kd", "setting": "[1]", "result": 55, "unit": "µM"}, {"measurement": "fu (%), fraction unbound", "setting": "[2]", "result": 26.8, "unit": "%"}]}
{"binder": "IETDV (modifications not checked)", "note": "[FA-linked dimeric ligand 14]", "values": [{"measurement": "Kd", "setting": "[1]", "result": 116, "unit": "µM"}, {"measurement": "fu (%), fraction unbound", "setting": "[2]", "result": 43.6, "unit": "%"}]}
